According to patent publication US10221225B2, “Peptides and combination of peptides and scaffolds thereof for use in immunotherapy against colorectal carcinoma (CRC) and other cancers” (immatics biotechnologies GmbH, priority 2015, dated 2019):

biological target: HLA-A*02:01 (Homo sapiens, UniProt P04439, D140Y/D185E/D98H/E176V/E277Q/G131W/G231S/I119V/I121R/I166T/I218V/L300P/L318F/N151K/N90K/P208A/P217A/Q86G/Q94H/R138H/R169H/T345S); test: MHC binding assay (UV-ligand exchange, beta2m ELISA, peptide exchange yield); conditions: MHC class I binding score; binding to HLA-A*02:01 ranged by peptide exchange yield (UV-ligand exchange, β2m ELISA)
Description: Candidate peptides for T cell based therapies according to the present invention were further tested for their MHC binding capacity (affinity). The individual peptide-MHC complexes were produced by UV-ligand exchange, where a UV-sensitive peptide is cleaved upon UV-irradiation, and exchanged with the peptide of interest as analyzed. Only peptide candidates that can effectively bind and stabilize the peptide-receptive MHC molecules prevent dissociation of the MHC complexes. To determine the yield of the exchange reaction, an ELISA was performed based on the detection of the light chain (β2m) of stabilized MHC complexes. The assay was performed as generally described in Rodenko et al. (Rodenko et al., 2006).
96 well MAXISorp plates (NUNC) were coated over night with 2 ug/ml streptavidin in PBS at room temperature, washed 4× and blocked for 1 h at 37° C. in 2% BSA containing blocking buffer. Refolded HLA-A*02:01/MLA-001 monomers served as standards, covering the range of 15-500 ng/ml. Peptide-MHC monomers of the UV-exchange reaction were diluted 100 fold in blocking buffer. Samples were incubated for 1 h at 37° C., washed four times, incubated with 2 ug/ml HRP conjugated anti-β2m for 1 h at 37° C., washed again and detected with TMB solution that is stopped with […]. Absorption was measured at 450 nm. Candidate peptides that show a high exchange yield (preferably higher than 50%, most preferred higher than 75%) are generally preferred for a generation and production of antibodies or fragments thereof, and/or T cell receptors or fragments thereof, as they show sufficient avidity to the MHC molecules and prevent dissociation of the MHC complexes.

Substance	Peptide exchange
101 (GLSEGHTFQV; listed as Homo sapiens) [compound 101]	″+++″ (≥50 = +++)
102 (KILVSLIEV; listed as Homo sapiens) [compound 102]	″+++″ (≥50 = +++)
103 (FLFGYPKRL; listed as Homo sapiens) [compound 103]	″++″ (≥20% = ++)
104 (ILLTIKDDTIYL; listed as Homo sapiens) [compound 104]	″+++″ (≥50 = +++)
105 (YALDLSTFL; listed as Homo sapiens) [compound 105]	″+++″ (≥50 = +++)
106 (SLISEKILL; listed as Homo sapiens) [compound 106]	″+++″ (≥50 = +++)
107 (ALLGGGPYML; listed as Homo sapiens) [compound 107]	″+++″ (≥50 = +++)
108 (SLAELVPGVGGI; listed as Homo sapiens) [compound 108]	″+++″ (≥50 = +++)
109 (ALDGDQMEL; listed as Homo sapiens) [compound 109]	″++″ (≥20% = ++)
110 (LLGELPRLLLL; listed as Homo sapiens) [compound 110]	″+++″ (≥50 = +++)
112 (KLGQVLIYL; listed as Homo sapiens) [compound 112]	″++″ (≥20% = ++)
113 (ILYDLQQNL; listed as Homo sapiens) [compound 113]	″++″ (≥20% = ++)
114 (TAVGHALVL; listed as Homo sapiens) [compound 114]	″+″ (≥10% = +)
115 (SLFDVSHML; listed as Homo sapiens) [compound 115]	″+++″ (≥50 = +++)
116 (LVYQFVHPI; listed as Homo sapiens) [compound 116]	″++″ (≥20% = ++)
117 (TLQPVDNSTISL; listed as Homo sapiens) [compound 117]	″++″ (≥20% = ++)
118 (LLADLKTMV; listed as Homo sapiens) [compound 118]	″+++″ (≥50 = +++)
119 (ILYQTVTGL; listed as Homo sapiens) [compound 119]	″++″ (≥20% = ++)
120 (VLYEGVDEV; listed as Homo sapiens) [compound 120]	″++″ (≥20% = ++)
121 (SLAPNIISQL; listed as Homo sapiens) [compound 121]	″+++″ (≥50 = +++)
122 (SLMGMVLKL; listed as Homo sapiens) [compound 122]	″+++″ (≥50 = +++)
125 (KLGDFGLLVEL; listed as Homo sapiens) [compound 125]	″++++″ (≥75% = ++++)
126 (TLAKYLMEL; listed as Homo sapiens) [compound 126]	″+++″ (≥50 = +++)
128 (MLDDRAYLV; listed as Homo sapiens) [compound 128]	″++″ (≥20% = ++)

Substance	Peptide exchange
129 (VLIDVLKEL; listed as Homo sapiens) [compound 129]	″+++″ (≥50 = +++)
130 (GLGGSQLIDTHL; listed as Homo sapiens) [compound 130]	″++″ (≥20% = ++)
131 (KLLDVVHPA; listed as Homo sapiens) [compound 131]	″++″ (≥20% = ++)
134 (GVAGGSILKGV; listed as Homo sapiens) [compound 134]	″++++″ (≥75% = ++++)
135 (KLQEEIPVL; listed as Homo sapiens) [compound 135]	″++″ (≥20% = ++)
137 (QLTEIKPLL; listed as Homo sapiens) [compound 137]	″+++″ (≥50 = +++)
138 (KQFEGTVEI; listed as Homo sapiens) [compound 138]	″+++″ (≥50 = +++)
139 (VLLNEILEQV; listed as Homo sapiens) [compound 139]	″+++″ (≥50 = +++)
140 (LLNEILEQV; listed as Homo sapiens) [compound 140]	″+++″ (≥50 = +++)
143 (KLSDVWKEL; listed as Homo sapiens) [compound 143]	″+++″ (≥50 = +++)
144 (LLNDRIWLA; listed as Homo sapiens) [compound 144]	″+++″ (≥50 = +++)
145 (LLLEVVKQV; listed as Homo sapiens) [compound 145]	″+++″ (≥50 = +++)
146 (ALSDETWGL; listed as Homo sapiens) [compound 146]	″++″ (≥20% = ++)
147 (TLTELRAFL; listed as Homo sapiens) [compound 147]	″++++″ (≥75% = ++++)
148 (RLLENMTEVV; listed as Homo sapiens) [compound 148]	″+++″ (≥50 = +++)
149 (YQFDKVGILTL; listed as Homo sapiens) [compound 149]	″+++″ (≥50 = +++)
151 (SAQGSDVSLTACKV; listed as Homo sapiens) [compound 151]	″+++″ (≥50 = +++)
152 (KLLAVIHEL; listed as Homo sapiens) [compound 152]	″++″ (≥20% = ++)
153 (ILFSEDSTKLFV; listed as Homo sapiens) [compound 153]	″+++″ (≥50 = +++)
154 (KLPSETIFVGC; listed as Homo sapiens) [compound 154]	″+++″ (≥50 = +++)
155 (RLLGEEVVRV; listed as Homo sapiens) [compound 155]	″+++″ (≥50 = +++)
156 (SLMMTIINL; listed as Homo sapiens) [compound 156]	″++++″ (≥75% = ++++)
157 (SLIERDLKL; listed as Homo sapiens) [compound 157]	″+++″ (≥50 = +++)
158 (GLLDPSVFHV; listed as Homo sapiens) [compound 158]	″+++″ (≥50 = +++)

Substance	Peptide exchange
159 (VLVDDDGIKVV; listed as Homo sapiens) [compound 159]	″++″ (≥20% = ++)
160 (KLLEFDQLQL; listed as Homo sapiens) [compound 160]	″+++″ (≥50 = +++)
161 (FLKNELDNV; listed as Homo sapiens) [compound 161]	″+++″ (≥50 = +++)
162 (KLMDYIDEL; listed as Homo sapiens) [compound 162]	″+++″ (≥50 = +++)
163 (RLLHEVQEL; listed as Homo sapiens) [compound 163]	″+++″ (≥50 = +++)
164 (KMLDEILLQL; listed as Homo sapiens) [compound 164]	″++++″ (≥75% = ++++)
165 (RLLDFPEAMVL; listed as Homo sapiens) [compound 165]	″++++″ (≥75% = ++++)
166 (GLLEARGILGL; listed as Homo sapiens) [compound 166]	″+++″ (≥50 = +++)
167 (SVIDHIHLISV; listed as Homo sapiens) [compound 167]	″+++″ (≥50 = +++)
168 (GLIRFPLMTI; listed as Homo sapiens) [compound 168]	″+++″ (≥50 = +++)
169 (YLAHFIEGL; listed as Homo sapiens) [compound 169]	″+++″ (≥50 = +++)
170 (ALAGGITMV; listed as Homo sapiens) [compound 170]	″+++″ (≥50 = +++)
171 (RLQETEGMVAV; listed as Homo sapiens) [compound 171]	″++″ (≥20% = ++)
172 (LLLDTVTMQV; listed as Homo sapiens) [compound 172]	″+++″ (≥50 = +++)
173 (KLGDLMVLL; listed as Homo sapiens) [compound 173]	″+++″ (≥50 = +++)
174 (ILLDDNMQIRL; listed as Homo sapiens) [compound 174]	″++++″ (≥75% = ++++)
175 (TLLGGKEAQALGV; listed as Homo sapiens) [compound 175]	″+++″ (≥50 = +++)
176 (RTLDKVLEV; listed as Homo sapiens) [compound 176]	″++″ (≥20% = ++)
177 (ALLQGAIESV; listed as Homo sapiens) [compound 177]	″+++″ (≥50 = +++)
178 (YLFREPATI; listed as Homo sapiens) [compound 178]	″++″ (≥20% = ++)
179 (RLLSPLSSA; listed as Homo sapiens) [compound 179]	″+++″ (≥50 = +++)
181 (NLFDLGGQYLRV; listed as Homo sapiens) [compound 181]	″+++″ (≥50 = +++)
182 (SLNKWIFTV; listed as Homo sapiens) [compound 182]	″++++″ (≥75% = ++++)
